Experiment [1] deals with Dimethylformamidase (DMFase) large subunit expressed and purified without the small subunit (Paracoccus sp. strain DMF). As to the kind of experiment: SEC. (In general: In gel filtration, larger molecules generally elute earlier.)
The target of experiment [2] is Dimethylformamidase (DMFase) α2β2 complex, recombinant wild type (Paracoccus sp. strain DMF). As to the kind of experiment: cryo-EM structure.

Here are results for two substances from article doi:10.1101/2019.12.17.879908.

Broadly, the stoichiometry N is the number of molecules, sites or subunits per partner or assembly. The substance “Dimethylformamidase (DMFase) large subunit expressed and purified without the small subunit (natural protein)” showed a stoichiometry N in experiment [1] of 2.

“Dimethylformamidase (DMFase) α2β2 complex, recombinant wild type”: the stoichiometry N in experiment [2] was 2.
